From the supplement of paper PMC6755084 come the findings set out here.

Sequences and labels used below:
B1: minF1; a variant is named by its letters at N, in order (parent)
chain: GAGACCGCAACTGAAAAGTTGTTNNNNAANNNNNGGNTNAATTTCTGCACGTAGAAGCAAAAGGC

The variants in the series derive from B1. As to the kind of experiment: fraction ligated after 30 min (ligated reads / total reads); higher = more ligase activity. Particulars: with F1*subA RNA substrate (template-directed ligation), 42 °C. Put shortly:
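Ligated and unligated RNAs from a pool of minimized ligase ribozyme variants were separated on gels, reverse transcribed with barcoded primers and sequenced on a MiSeq. Core bases needed quality ≥30 to pass the filter. Each variant's fraction ligated was then taken as ligated reads over total reads.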
Regarding GAGACCGCAACTGAAAAGTTGTTTCGAAATGGTGGGTTGAATTTCTGCACGTAGAAGCAAAAGGC [TCGATGGTGTG], the fraction ligated worked out at 0.00336.

With GAGACCGCAACTGAAAAGTTGTCAGAAATGGATGGGTTGAATTTCTGCACGTAGAAGCAAAAGGC [AGAAGGATGTG T23C A29T], the fraction ligated was found to be 0.0071.

Regarding GAGACCGCAACTGAAAAGTTGTTACGAAAGGATGGGTTGAATTTCTGCACGTAGAAGCAAAAGGC [ACGAGGATGTG], the fraction ligated amounted to 0.00409.

With GAGACCGCAACTGAAAAGTTGTTACGAAATGGATGGGTTAATTTCTGCACGTAGAAGCAAAAGGC [ACGATGGATGT], the fraction ligated came to 0.0146.

As for GAGACCGCAACTGAAAAGTTGTTATAAAATGATGGGTTGAATTTCTGCACGTAGAAGCAAAAGGC [ATAATGATGTG], the fraction ligated turned out to be 0.00474.

For the variant GAGACCGCAACTGAAAAGTTGTTTCAGAATGGATGGGTTGATTTCTGCACGTAGAAGCAAAAGGC [TCAGTGGATGT A40G], the fraction ligated is 0.0137.

GAGACCGCAACTGAAAAGTTGTTATAGAAATGGAGGGTTAATTTCTGCACGTAGAAGCAAAAGGC [ATAGATGGAGT]: the fraction ligated stood at 0.00474.

As for GAGACCGCAACTGAAAAGTTGTTATAGAAAGGATGGTTGAATTTCTGCACGTAGAAGCAAAAGGC [ATAGAGGATTG], the fraction ligated was 0.00226.

GAGACCGCAACTGAAAAGTTGTTCGAAATGGATGGGTTGAATTTCTGCACGTAGAAGCAAAAGGC [CGAAGGATGTG A29T]: the fraction ligated was 0.0086.

As to GAGACCGCAACTGAAAAGTTGTTACGAAATGGAGGGTTGAATTTCTGCACGTAGAAGCAAAAGGC [ACGATGGAGTG], the fraction ligated is 0.00302.

Regarding GAGACCGCAACTGAAAAGTTGTTATAAAATGGATGGGTTAATTTCTGCACGTAGAAGCAAAAGGC [ATAATGGATGT], the fraction ligated was found to be 0.00257.

Take GAGACCGCAACTGAAAAGTTGTTATAGAAATATGGGTTGAATTTCTGCACGTAGAAGCAAAAGGC [ATAGATATGTG]: the fraction ligated came out at 0.00482.

Turning to GAGACCGCAACTGAAAAGTTGTTTCGAATGGATGGGTTGAATTTCTGCACGTAGAAGCAAAAGGC [TCGAGGATGTG A29T], the fraction ligated came out at 0.0105.

GAGACCGCAACTGAAAAGTTGTTTCAGATGGATGGGTTGAATTTCTGCACGTAGAAGCAAAAGGC [TCAGGGATGTG A29T]: the fraction ligated turned out to be 0.00613.

As for GAGACCGCAACTGAAAAGTTGTAAGAAATGGATGGGTTGAATTTCTGCACGTAGAAGCAAAAGGC [AGAAGGATGTG T23A A29T], the fraction ligated stood at 0.00429.

As for GAGACCGCAACTGAAAAGTTGTATCGAAAGGATGGGTTGAATTTCTGCACGTAGAAGCAAAAGGC [TCGAGGATGTG T23A], the fraction ligated came out at 0.

In the case of GAGACCGCAACTGAAAAGTTGTTATAAAATGGAGGGTTGAATTTCTGCACGTAGAAGCAAAAGGC [ATAATGGAGTG], the fraction ligated is 0.00187.

As to GAGACCGCAACTGAAAAGTTGTTACGAAATGGTGGGTTGAATTTCTGCACGTAGAAGCAAAAGGC [ACGATGGTGTG], the fraction ligated came out at 0.00555.

GAGACCGCAACTGAAAAGTTGTTTCGAAAGGATGGGTTGAATTTCTGCACGTAGAAGCAAAAGGC [TCGAGGATGTG]: the fraction ligated came out at 0.00582.

Turning to GAGACCGCAACTGAAAAGTTGTTTCGAAATGGATGGTTGAATTTCTGCACGTAGAAGCAAAAGGC [TCGATGGATTG], the fraction ligated was determined as 0.127.

In the case of GAGACCGCAACTGAAAAGTTGTTATAGAAATGAGGGTTGAATTTCTGCACGTAGAAGCAAAAGGC [ATAGATGAGTG], the fraction ligated is 0.00181.

GAGACCGCAACTGAAAAGTTGTATCAGAAGGATGGGTTGAATTTCTGCACGTAGAAGCAAAAGGC [TCAGGGATGTG T23A]: the fraction ligated amounted to 0.00448.

GAGACCGCAACTGAAAAGTTGTTTGAAATGGATGGGTTGAATTTCTGCACGTAGAAGCAAAAGGC [TGAAGGATGTG A29T]: the fraction ligated is 0.00393.

With GAGACCGCAACTGAAAAGTTGTATCAGATGGATGGGTTGAATTTCTGCACGTAGAAGCAAAAGGC [TCAGGGATGTG T23A A29T], the fraction ligated came out at 0.0174.

Take GAGACCGCAACTGAAAAGTTGTATCAGAATGATGGGTTGAATTTCTGCACGTAGAAGCAAAAGGC [TCAGTGATGTG T23A]: the fraction ligated was 0.00342.

In the case of GAGACCGCAACTGAAAAGTTGTATCGAAATGGATGGGTTGATTTCTGCACGTAGAAGCAAAAGGC [TCGATGGATGT T23A A40G], the fraction ligated came to 0.0572.

As to GAGACCGCAACTGAAAAGTTGTATCGAAATGGTGGGTTGAATTTCTGCACGTAGAAGCAAAAGGC [TCGATGGTGTG T23A], the fraction ligated turned out to be 0.00501.

Consider GAGACCGCAACTGAAAAGTTGTATCGAAATGGATGGTTGAATTTCTGCACGTAGAAGCAAAAGGC [TCGATGGATTG T23A], for which the fraction ligated is 0.116.

As to GAGACCGCAACTGAAAAGTTGTTACAGAATGGATGGGTTGATTTCTGCACGTAGAAGCAAAAGGC [ACAGTGGATGT A40G], the fraction ligated was 0.017.

With GAGACCGCAACTGAAAAGTTGTTACAGAATGGATGGGTTAATTTCTGCACGTAGAAGCAAAAGGC [ACAGTGGATGT], the fraction ligated is 0.00954.

Take GAGACCGCAACTGAAAAGTTGTTTCGAAATGGAGGGTTGAATTTCTGCACGTAGAAGCAAAAGGC [TCGATGGAGTG]: the fraction ligated was found to be 0.00518.

With GAGACCGCAACTGAAAAGTTGTATCGAAATGATGGGTTGAATTTCTGCACGTAGAAGCAAAAGGC [TCGATGATGTG T23A], the fraction ligated is 0.00559.

Take GAGACCGCAACTGAAAAGTTGTTTCAGAATGGTGGGTTGAATTTCTGCACGTAGAAGCAAAAGGC [TCAGTGGTGTG]: the fraction ligated turned out to be 0.00248.

Consider GAGACCGCAACTGAAAAGTTGTATCGAAATGGATGGGTTAATTTCTGCACGTAGAAGCAAAAGGC [TCGATGGATGT T23A], for which the fraction ligated came to 0.0123.

As for GAGACCGCAACTGAAAAGTTGTTACAGATGGATGGGTTGAATTTCTGCACGTAGAAGCAAAAGGC [ACAGGGATGTG A29T], the fraction ligated worked out at 0.00506.

Turning to GAGACCGCAACTGAAAAGTTGTTTCAGAATGGAGGGTTGAATTTCTGCACGTAGAAGCAAAAGGC [TCAGTGGAGTG], the fraction ligated worked out at 0.00343.

Consider GAGACCGCAACTGAAAAGTTGTTATAGAAATGATGGGTTAATTTCTGCACGTAGAAGCAAAAGGC [ATAGATGATGT], for which the fraction ligated came to 0.000906.

For the variant GAGACCGCAACTGAAAAGTTGTTTCAGAATGGATGGTTGAATTTCTGCACGTAGAAGCAAAAGGC [TCAGTGGATTG], the fraction ligated was determined as 0.0102.

On to GAGACCGCAACTGAAAAGTTGTATCAGAATGGTGGGTTGAATTTCTGCACGTAGAAGCAAAAGGC [TCAGTGGTGTG T23A], for which the fraction ligated was found to be 0.00335.

With GAGACCGCAACTGAAAAGTTGTTATAAATGGATGGGTTGAATTTCTGCACGTAGAAGCAAAAGGC [ATAAGGATGTG A29T], the fraction ligated was 0.0199.

As to GAGACCGCAACTGAAAAGTTGTTACGAAATGGATGGGTTGATTTCTGCACGTAGAAGCAAAAGGC [ACGATGGATGT A40G], the fraction ligated was found to be 0.0424.
